Results from patent US20090192100, “NOVEL USE OF SPIEGELMERS” (published 2009).

Target: T1, HMGA1b-His6 (Homo sapiens, S2G)
T1 chain: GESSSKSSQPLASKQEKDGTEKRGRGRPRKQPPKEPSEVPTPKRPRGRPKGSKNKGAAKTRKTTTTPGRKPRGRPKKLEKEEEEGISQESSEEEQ
Assay: streptavidin plate assay with nickel-HRP detection; poly(dGdC) competitor
Conditions: tags: C-terminal L-GSLNS-His6 (vector pHO2d), expressed in E. coli BL21; label: 5'-biotin on 34 nt strand
Method: The detection of HMGA1b-His6 bound to DNA is carried out with horseradish peroxidase modified with nickel (Nickel-HRP), which transforms a fluorogenic substrate. In this assay the spiegelmer displaces the recombinant HMGA1b from its natural binding partner. On account of the 1:1:1 stoichiometry of spiegelmer/rHMGA1b/dsDNA AT Hook, a direct prediction can be made regarding the affinity of the spiegelmers for HMGA1b. The principle of the assay is illustrated in FIG. 5.
To carry out this test spiegelmers in various concentrations and HMGA1b-His6 (0.36 μg/ml; ca. 30 nM) in a total volume of 100 μl are incubated for 10 minutes in a tapered floor plate at room temperature while shaking. The incubation solution also contains: 25 mM Tris/HCl, pH 7.0 (Ambion, Austin, Tex., USA), 140 mM KCl (Ambion, Austin, Tex., USA), 12 mM NaCl (Ambion, Austin, Tex., USA), 0.8 mM MgCl2 (Ambion, Austin, Tex., USA), 0.25 mg/ml BSA (Roche, Mannheim, Germany), 1 mM DTT (Invitrogen, Karlsruhe, Germany), 18-20 μg/ml poly(dGdC) (Sigma, Deisenhofen, Germany)), 0.05% Tween 20 (Roche, Mannheim, Germany). […]
100 μl of the fluorogenic HRP substrate (QuantaBlue, Pierce, Bonn, Germany) are then added to each well and the fluorescence is measured after 15 mins (ex: 340/em: 405 nm).

B1: dsDNA AT hook (dsDNA)
DNA 1: TCGAAAAAAGCAAAAAAAAAAAAAAAAAACTGGC
DNA 2: GCCAGTTTTTTTTTTTTTTTTTTGCTTTTTT
  binding result: binds
